Here are results for two molecules from paper PMC7483523, “Affinity of Skp to OmpC revealed by single-molecule detection” (Scientific Reports, 2020).

Data set [1] concerns the target T1, OmpC G8C-D335C labelled with AF555 and AF647 (UniProt P06996 22-367, G8C | D335C, fluorescent dyes AF555 and AF647 (maleimide) on the cysteines).
T1 construct: OmpC, outer membrane protein; plasmid pET28a-ompC as template; Unfolded OmpC, diluted from urea; Residue numbers fit the mature protein without its signal peptide (surmised); also called dual-labelled OmpC; intramolecular labelled OmpC G8C-D335C; source: E. coli BL21(DE3), purified (Ni-NTA) in 8 M urea; diluted from 8 M urea into the sample
T1 sequence (looked up): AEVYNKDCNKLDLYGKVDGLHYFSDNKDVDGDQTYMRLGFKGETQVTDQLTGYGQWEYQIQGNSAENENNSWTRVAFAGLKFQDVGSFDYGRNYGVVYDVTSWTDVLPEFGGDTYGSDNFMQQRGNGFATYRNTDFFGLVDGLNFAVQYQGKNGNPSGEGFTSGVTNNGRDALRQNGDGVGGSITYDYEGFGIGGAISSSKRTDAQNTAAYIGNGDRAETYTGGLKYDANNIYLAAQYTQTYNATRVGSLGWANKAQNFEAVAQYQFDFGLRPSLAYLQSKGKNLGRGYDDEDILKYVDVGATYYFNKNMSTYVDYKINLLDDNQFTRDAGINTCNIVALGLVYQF
The experiment in a line: pscFCS (portion-selectively-chosen FCS on smFRET subpopulations); 50 pM dual-labelled OmpC diluted from 8 M urea into wild-type Skp at subnanomolar to nanomolar concentrations, buffer C, 0.02% tween 20, 23 °C; diffusion times of bound and unbound OmpC compared in the same sample. The conditions noted are these: both partners purified.

Data set [2] addresses T2, OmpC·Skp3 complex (dual-labelled OmpC G8C-D335C with wild-type Skp) (UniProt P06996 22-367; P0AEU7 21-161, G8C | D335C, fluorescent dyes AF555 and AF647 (maleimide) on the cysteines).
T2 construct: OmpC, as the chain of m4; Skp, as the chain of m1; source: formed in the sample from purified urea-denatured OmpC G8C-D335C (50 pM) and purified wild-type Skp; copies: 1 + 3
T2 sequence 1: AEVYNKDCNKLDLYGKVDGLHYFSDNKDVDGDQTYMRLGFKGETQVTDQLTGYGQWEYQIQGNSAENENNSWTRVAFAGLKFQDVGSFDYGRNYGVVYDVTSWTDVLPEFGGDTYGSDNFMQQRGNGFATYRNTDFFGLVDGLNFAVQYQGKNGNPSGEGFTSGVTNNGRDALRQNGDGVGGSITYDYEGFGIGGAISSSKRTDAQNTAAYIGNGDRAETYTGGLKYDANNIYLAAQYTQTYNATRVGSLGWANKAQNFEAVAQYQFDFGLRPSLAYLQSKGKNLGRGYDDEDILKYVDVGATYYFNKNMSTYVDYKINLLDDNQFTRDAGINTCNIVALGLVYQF
T2 sequence 2: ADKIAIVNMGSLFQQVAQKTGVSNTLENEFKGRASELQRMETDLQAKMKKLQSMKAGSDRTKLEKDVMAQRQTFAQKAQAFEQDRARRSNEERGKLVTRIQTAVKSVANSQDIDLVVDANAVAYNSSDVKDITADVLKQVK
Kind of data set: smFRET (intramolecular, on dual-labelled OmpC); 50 pM dual-labelled OmpC diluted from 8 M urea into micromolar wild-type Skp, buffer C, 0.02% tween 20, 23 °C; peak areas of Eapp 0.1 and 0.3 fitted against [Skp]0. The note with it: both partners purified.

For data set [3], the target named is T3, OmpC G8C-I232C, dual-labelled (UniProt P06996 22-367, G8C | I232C, dual-labelled with fluorescent dyes on the cysteines (dyes not named for this mutant)).
T3 construct: OmpC, outer membrane protein; plasmid pET28a-ompC as template; also called OmpC double mutant; source: E. coli BL21(DE3), purified (Ni-NTA) in 8 M urea
T3 sequence (looked up): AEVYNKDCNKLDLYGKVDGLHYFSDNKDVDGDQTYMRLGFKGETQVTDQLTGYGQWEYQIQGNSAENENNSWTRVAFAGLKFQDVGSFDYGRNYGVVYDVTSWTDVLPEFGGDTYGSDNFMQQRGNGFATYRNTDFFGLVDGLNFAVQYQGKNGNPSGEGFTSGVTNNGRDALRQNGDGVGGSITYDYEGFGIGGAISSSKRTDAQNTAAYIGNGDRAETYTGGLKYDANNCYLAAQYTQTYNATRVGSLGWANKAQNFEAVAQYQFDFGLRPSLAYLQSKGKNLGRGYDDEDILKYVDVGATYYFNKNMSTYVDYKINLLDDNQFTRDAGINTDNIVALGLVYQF
The data set is described as above. The note with it: both partners purified.

The target of data set [4] is T4, OmpC G8C-L139C, dual-labelled (UniProt P06996 22-367, G8C | L139C, dual-labelled with fluorescent dyes on the cysteines (dyes not named for this mutant)).
T4 construct: OmpC, outer membrane protein; plasmid pET28a-ompC as template; also called OmpC double mutant; source: E. coli BL21(DE3), purified (Ni-NTA) in 8 M urea
T4 sequence (looked up): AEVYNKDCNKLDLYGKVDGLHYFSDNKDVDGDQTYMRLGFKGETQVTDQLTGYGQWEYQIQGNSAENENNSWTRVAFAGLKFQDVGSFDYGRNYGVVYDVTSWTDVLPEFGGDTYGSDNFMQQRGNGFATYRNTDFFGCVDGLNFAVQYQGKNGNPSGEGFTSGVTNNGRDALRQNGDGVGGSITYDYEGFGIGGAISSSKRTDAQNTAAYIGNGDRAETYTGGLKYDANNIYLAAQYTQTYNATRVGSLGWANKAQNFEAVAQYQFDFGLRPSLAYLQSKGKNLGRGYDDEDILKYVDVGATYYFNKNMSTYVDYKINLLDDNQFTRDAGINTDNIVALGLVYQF
The data set is described as above. The note with it: both partners purified.

Data set [5] deals with the molecule itself. Kind of data set: fluorescence correlation spectroscopy (FCS); trimer to monomers; 0.4 nM Skp D128C-Cy3B as tracer in wild-type Skp of various concentrations, denatured by 4 M urea and diluted 100-fold in buffer C (50 mM PB, 100 mM NaCl, pH 7.0), 0.02% tween 20, 23 °C; effective stoichiometric number from the diffusion time fitted against [Skp]0.
For data set [6], the target named is T5, OmpC G8C-AF555 with an AviTag on the C-terminus, biotinylated (UniProt P06996 22-367, G8C, AF555 (maleimide) on the cysteine of G8C; biotin on the AviTag's lysine side chain).
T5 construct: OmpC, outer membrane protein; plasmid pET28a-ompC as template; Held on a streptavidin surface by the biotin of the AviTag; also called biotinylated OmpC; source: E. coli BL21(DE3), purified (Ni-NTA) in 8 M urea; biotinylated by BirA
T5 sequence (looked up): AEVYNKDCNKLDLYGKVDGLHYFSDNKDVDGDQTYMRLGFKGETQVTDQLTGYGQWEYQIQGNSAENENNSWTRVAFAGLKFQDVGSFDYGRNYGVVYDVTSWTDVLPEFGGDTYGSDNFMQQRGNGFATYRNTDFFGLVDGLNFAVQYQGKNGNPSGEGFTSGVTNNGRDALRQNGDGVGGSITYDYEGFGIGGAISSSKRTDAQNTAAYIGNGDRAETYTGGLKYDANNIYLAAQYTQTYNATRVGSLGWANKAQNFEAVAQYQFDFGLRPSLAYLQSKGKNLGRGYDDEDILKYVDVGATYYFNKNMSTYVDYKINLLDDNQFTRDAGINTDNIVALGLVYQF
Kind of data set: TIRF colocalization (single molecule); apparent; biotinylated OmpC G8C-AF555 (50 pM) immobilised on a streptavidin coverslip; Skp D128C-AF647 from 500 pM to 8 nM in buffer C, 0.02% tween 20, oxygen scavenging system, 23 °C; alternating laser excitation 532 and 640 nm. The note with it: both partners purified.

B1: wild-type Skp (natural protein)
chain: ADKIAIVNMGSLFQQVAQKTGVSNTLENEFKGRASELQRMETDLQAKMKKLQSMKAGSDRTKLEKDVMAQRQTFAQKAQAFEQDRARRSNEERGKLVTRIQTAVKSVANSQDIDLVVDANAVAYNSSDVKDITADVLKQVK
notes: Skp, periplasmic chaperone of gram-negative bacteria; plasmid pET28a-skp; In equilibrium between monomer and homotrimer (Skp3); concentrations are counted in Skp monomer; The printed mass of the labelled His-tagged mutant (18.8 kD) and the residue number D128 fit the mature protein without its signal peptide (surmised); also called Skp3 (trimer); Skp monomer; source: E. coli BL21(DE3) pLysS, …
Broadly, the stoichiometry N is a count of units in the complex or per binding partner. On to B1, for which the “stoichiometry N” value in data set [1] is 2.8 ± 0.4 Skp:OmpC; in data set [5] it was 3. This molecule had a Kd in data set [2] of 1200 ± 400 nM. The binding result in data set [3] and in data set [4] was “binds” each time.

B2: Skp D128C-AF647 (natural protein)
chain: ADKIAIVNMGSLFQQVAQKTGVSNTLENEFKGRASELQRMETDLQAKMKKLQSMKAGSDRTKLEKDVMAQRQTFAQKAQAFEQDRARRSNEERGKLVTRIQTAVKSVANSQDIDLVVDANAVAYNSSCVKDITADVLKQVK
modifications: AF647 (maleimide) on the cysteine of D128C
notes: Skp; plasmid pET28a-skp as template; source: E. coli BL21(DE3) pLysS, purified (Ni-NTA, desalting), labelled in 4 M urea; not shown: His-tag, N-terminal, kept
With B2, in data set [6], the Kd was 0.55 nM and the “stoichiometry N” value was found to be 3.
